The results in this text go back to a protein production outcome set (Wang et al. 2014).
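Note: failed if final PepcDB status was selected cloned or expressed and not failed if soluble or beyond.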

A short description of the data set: label from the status in PepcDB records.
Turning to “MDKLRVPFHRPYVNLRRCSERLVMHIHILGICGTFMGSLAVLAKESGHRVTGSDANVYPPMSTQLQAQGIELTQGYDPAQLDPAPDLVVVGNALSRGNPAVEYVLNKGLPYVSGPQWLADHVLQDRWVLAVAGTHGKTTTSSMLAWVLEHAGMSPGFLIGGIPQNFAVSARLGDTPFFVVEADEYDSAFFDKRSKFVHYRPRTAILNNLEFDHADIFPDLPAIERQFHHLVRTIPSEGLVIHPTTEPALSRVIEMGCWTPVQTTGDGGQWQARLLSEDGSRFEVLFEGELQGAVEWDMTGQHNVANALATLAAARHVGVVPSLGVQALSAFKSVKRRMEKVAEVRGITIYDDFAHHPTAIATTLDGLRKKIGDAPIIAVIEPRSNSMKLGAHRDGLPESVSQADQVVWYAPPNLGWDLAATVAGGSVPSTVCDSLEAIIARVHSQVQPGTHIVIMSNGGFGGLHGKLAEALK”, the protein production entry is “failed”. For the sequence “MKRLSTLCLLAAGFFIPGQAHQARPTVLDSVYAPLKVATPPSDAYIGLSLLDNGEIRHYNYGEQAVAGTVYLSSTDHGLTWKRVNRPKEMPFADCQSPVSKEYIRLVDMGAMGVYCIRTSGGLTGGRTLTKVADRNSIMIKPPVFIRNGKRIVVAAHGGVTPKGCYTYFSDDDGLTWKCSNTVTSPDHQGGGFHKGIRWNHGAVEPTVVELKDGTLWMLMRTSQDFHYQAFSKDGGQTWGESEPSPFYGTITMPTLGRLADGRLLLFWCNTTPLPEKEGTDGVWDDVFTNRDVTHVAVSDDDGKTWKGFRELYMDPMRNDIDYAVHGGGIDRGVHQAQFVEVAPGKVLASIGQHPLHRAMMMFDVNWLYEKSRFNDFTDSLSQWSTFNYMNGIKGHCAYNRIQGCMLEPHPRKEGRQVLHLTYRPDASLVADTRGAVWNFPAMKKGTFTVSLRIPEGSHSVSLLLNDRWMNPSDTVARYQSMYELPLTRKQLGVKDDRWHEVSLEWDLLQKRPQARVWVDGRLRPLRLPLKNKSQNGISYVHFIAPPAEANPGVYLEWVRAEADGAI”, the protein production result was “failed”. Then “MSEKREKQTKSKRRIWRGVTTATASLLTLSMSATLVIDGFRTDIDKFLGTQSTKMVTEDVSAEDYTFQSDYSSTTELLDSIEDLGERMNEEGSVLLKNENAALPLSKEETQKISLLGFSSYYPVQGGDFGSTLSENKGTDADTVDMLEAFESKGFEMNPTLKKMYQGLKEEFKSEAVLPWGVTTYYRATAPATTGVFTSLEPETATLDEAEPNWKKSMTDYNVMIVTLARAAGENANYTPGEDGVNPEQDLNQADPLGLSDTERAIIDEAVNAKKENNGKLIVMLNNASAMEIEEIKNNTGVDAILEVGLPGGYGFYGVADVLSGEVNPSGHLADTYAVDNSSSPAAQNYGNYEWTNADSAYSINSEIVEAEGIYTGYKYYETRYADTVLGQGNASDKTGSSNGKAWNYEDEVSYPFGYGLSYTTFSQTLDSLDVNLEDKTVTAKVTVKNTGDVAGKDVVQLYTSLPYTEYDKEHAVEKAAVQLLDYEKTGVLQPGESVTVEITADAQDMASWDSTCDNAAGTKGNWILDAGDYYFTVGNGSHEAVNNVLAAQGMTKANGMTDAGNAANVKKWTLDTFDSETFAYSKNGTAVENQLQDMDLNYYMPDTVTYLSRSDWKATWPKTYKDLTATDEMIEVMKNNLVEIKEQGNPDEVTFGEDNGLTLASLKGETDLTNEKWTDLIDQITLEEAMIRTGFGGTSTKSIVSIVSPEAVQNDGPNGFNSYTLGQYANTDTDSADPYVIDPDDKNLNYKFGTMSNETVIAQTFSKEMAAEYGAVTGNYSIWSNLPILWGAGTNLHRTPYNARNHEYYSEDAILTAYQAAAYIAAGKEYGCIIAPKHFAFNDTEINRSGIATFMTEQKARENELRGTQASVEDAQTLGMMTTFNRIGCTAGNAHYGLLMNILRKEWGFQGLMSEDFIQDANYSVLKEAVHCGVTMTCNTGDSNMEAVTAKWNYWTTEAVSKDASMMQDLKNVMMWQNYALANSNAMDGLNETSQIKDVRTWYDNALTATSAVLALLTLAAAAMYIRDAKRRKNS”, with “failed”; and “MVEGLGRIGFGLFGLAVLIGITWLFSSNRRAIDWKLVATGLALQISFAALVLLVPGGRDVFDALGKGFVKVLSFVNEGSTFIFGNLMNIDSYGFIFAFQVLPTIIFFSALMGVLYHLGVMQMVVRAMAWAITKVMRVSGAETTSVCASVFIGQTEAPLTVRPYIPKMTQSELLTMMIGGMAHIAGGVLAAYVGMLGGSDPAQQAFYAKHLLAASIMAAPATLVVAKLLVPETGTPLTRGTVKMEVEKTTSNVIDAAAAGAGDGLRLALNIGAMLLAFIALIALINAPLTWLGEVTGATALLGRPTNLSTIFGYVLAPIAWVIGTPWVDATTVGSLIGQKVVINEFVAYSELSRIVKGEVRGVGLSAEGRLIATYALCGFANFSSIAIQIGGIGGLAPERRHDLANFGLRAVLGGSIATFMTATIAGVLSHFG”, with “failed”; and “MANIEIRQETPTAFYIKVHDTDNVAIIVNDNGLKAGTRFPDGLELIEHIPQGHKVALLDIPANGEIIRYGEVIGYAVRAIPRGSWIDESMVVLPEA”, with “not failed”. The result for “MNILLAMIPAFFWGTTYAVTQFTLPDWPPVLLGALRALPAGLLLLAIKPSLPKKHEWKVLLVLGTINIAFFFGLIFVMALTLPSAISGVGMISVPVFAMLFGWAVYKRQPSAIQGISGAVLIALAWFLFDPSSISLNPIGLGAMLAAIMCIVIGSSVTKSLGTKMHWWTVLTWQLILGGVLLSIAAAVLATINPQPYVHAVQNIDMTNTLGLLWVIVLNTALGYGMYVWLLQRMSVVDFTFGGIANPIAGIVSGLLLLGENFTPLQYSLMVGMIVMSLLPQILTSLRARKEAITV” reads “failed”; that for “MKYYPFSYYRSINAADLYENIKAYTVLDVREPFELIFGSIANSINIPISELREKWKILERDKKYAVICAHGNRSAAAVEFLSQLGLNIVDVEGGIQSWIEEGYPVVYGRESAEDLEHHHHHH”, “not failed”; that for “MGITITDELLWAILKDELSDAEANALVWQALGYVWDEAQSCWKTDLVAPEWRQDYPEPPDFIASRPATVKLTRSIPAPYKQLLKEELGFAGYSINELVPRKTRRATMTNWLLAYRRSQQD”, “not failed”. Then “MENSRHNEFFLPLLLCIILPIIFMLTTNIKILRKTFSFILQNSFLQSFVTIFISIILEALPFIIIGVFLSSLIQVFISEETLSRIIPKNIVLGILSAATIGLIFPVCDCAIVPIVRRLLKKGLPLPIGITFMLSVPIINPVVLTSTYYAFLSNPHAPLIRAVAGWISAVLIGFIINKLDKSKTKQAKLHEILFNERVYMPKNNPIVTSNHNHEHHKCSCGHVHHEEEKFSALTLVHVLDHVSLELQDVGRFVIMGAFLSALMQTFIPRKYILSIGHGNISSIIVMMILAYVLCVCSETDAFIARTFVNQFTNGSIVAFLIFGPMIDIKNTLMLCETFNLKFVFKLVSIIIVVCFLIGLAFNFVKIPL”, with “failed”. Regarding “MSSNVPADMINLRLILVSGKTKEFLFSPNDSASDIAKHVYDNWPMDWEEEQVSSPNILRLIYQGRFLHGNVTLGALKLPFGKTTVMHLVARETLPEPNSQGQRNR”, the protein production result is listed as “failed”. Consider “MEFPKMLTRKIKLWDINAHITCRLCSGYLIDATTVTECLHTFCRSCLVKYLEENNTCPTCRIVIHQSHPLQYIGHDRTMQDIVYKLVPGLQEAEMRKQREFYHKLGMEVPGDIKGETCSAKQHLDSHRNGETKADDSSNKEAAEEKPEEDNDYHRSDEQVSICLECNSSKLRGLKRKWIRCSAQATVLHLKKFIAKKLNLSSFNELDILCNEEILGKDHTLKFVVVTRWRFKKAPLLLHYRPKMDLL”, for which the protein production entry is “failed”. Then “MELWIGITFASAFLQNLRSTLQKHLKGMMGTTGATFVRFVFGMPFALAYLAFLHLGLGRPLPVPNMSFAGWATVGAMAQIAATFLLVHLFSFRNFAVGTAYSRTEPAQAALFALIFIGESITGGTLAAIAISVAGVMLISVARTQVTPASFLTSIFSRTAGIGLASGAFFGLSSVAYRSASLALAPSLPAPDAMMQAGFTLVVVIVMQTVSMFLWIIWREREELPRIAKVWKPSLAVGFVGATASFGWFTAMTLQQAAVVKALAQVEMLFAFASTVLFFKEKINRLELSGCMLIVVGVLSLLAFG”, with “failed”; and “MSIWSPLLFNAEGKKQGYDCRYLHKLTDQGNKLSDSGLPVIFTLAHLCAMAGVSFSLIHSCVSRKYDPYRSFTIKKRSGGYRQIVVPEPELMHLQRWINEFILKRAKVHSCAAAYISGSDIKMNASKHLGANWLIKLDIQRFFESISELQVYYIFHRLGYPKLLSFEMARICTRVDTQSNRHFRPRWNNRIHHFEILEYCDSRVGYLPQGAPTSPSLSNLTCRKLDKEIYDLSCRSDCRYTRYADDFAFSFIDLDREKASNFVNQVSRIISSYGFRKNARKTKIIPPGSKKIITGLVLGNGKVHLQKELKDYIRQNIYFATKYGVDEHCKKRGFVSIDGFYNHLEGIVNFALFIEPDFGEKAFEEFRAIKWPSLIVGLHA”, with “failed”; and “MKIACVVLTYNRLSLLKRCIDSIRNQTYQEFDIYVIDNASTDGTAHWLSLQNDLTVISIHENKGPANGFYTCLQVPYDDGYDWIWMMDDDGVADKGQLEELLNKTVKNNLYFTNALVCNIDNPEKIAFGAKKTIDTQREELIKGNINPFNGTFIHRRVIEKNGNIMREMYMYGCETEYQLRAIKNGFQVATVTSAIHYHPSPKVSICHLIPYIKYCSIIDYPIDTLFYIRNKAYINYTYLGFKRSLFMITSYSLYYLFRLKIRKVLLFWKYYREGCKGVVGNKKQLEHHHHHH”, with “not failed”. Then “MQDFDFSFNPKACEGCGAKCCVGESGYIFLNIQEMQQISAFLKLELEEFSQKYVKKVGYKFSLLEKDAKELGLACVFLDLETKKCQIYSVRPKQCQTFPFWEGVKTFSKEQKEAFCQSCPGITQKTKETKVR”, with “failed”; and “VDQLFFSTTDAQGRIQETNNTFVELSRYTEEELRNAAHNIIRHPFMPGGVFKIMWDKLQRGETFAGYVRNLAHSGETYDVFATVTPIPGTHD”, with “failed”. As for “MIFENRLALSAMAGVNNAEFCRKQKASLVILGGFNADRRALEAAEKAVKRGRKEFLFGIDGIEGEIKKLGRRKFAVNVRSSSLEGYLNVAELVAEFEGIIEINAHCRQPEFVEIGCGEWLLFNHERLVEIVSKTSRIAPTFVKIRGGHKLDYEKIARKLFDAGCLAIHVDAMIPGGGCDFSLIERISRIGNVIGNNSFVDIESGERIIMAGAKMASAARAVLRDENFFEKMLRSPLLSQPVELSCGRFRLEHHHHHH”, the protein production result is recorded as “not failed”. Then “MIYLHAIDPIAFSLGPVQVHWYGLMYLAAFFSAWALGRSRILRGRLPGVDMDGFSDLLFYGMLGVVLGGRIGYMLFYAFETFLANPLILFKVWEGGMSFHGGLLGVLIACWLWARKHRLHFFDVMDFVAPLVPLGLGFGRLGNFVGGELWGKFTQAGWGVIFPHAPELADRLPAQIQAQYAAGALNQFARHPSQLYEAALEGVVMFVVLWTFSMKPRARYAVSGLFALLYGVFRFIVEFVRVPDAPIGYLAFNWLTMGQILSLPLVAVGLVLLAMSRRAPVLQPVLPVPAGVEAAK”, with “failed”. The result for “PSEAPERVMVPIANPKTVESLLDLAFIVRGQSSEPLYPLTVAQGTNGDAESEVAKAEKVLAHAVTYAAGASVPIQMLTRLDPNIASGIIRAIEETRITTLVIGWNGKRSTPQLIFGGILDQLLERTEEMVLVSK” reads “failed”. The result for “MSRVSLPHDAKAGPTKPEVRAVLASKLALTGSDHFAEVGSCTGAVTITAARRAGRVTALERKGNRLDVTRKNLAANDVDADVELREAEAPEGLPDDADVLFLGGSRNYEAILDHAVETGVDRIVMNVSRLEVAGAATEAFRERDILEEVVQFQVSHGYELAGATSFNSENPVYMLVGSASEDVAADGGSPTETEATDGGQR” reads “failed”; that for “RFHNDGEALLAAFLAGDLAGIGAMTPEPAALEPARRLRRFYVRPDMRRRGVATALASALIHEGFDSVRLLTVNARAADAAAPFWEAQGFEPDTIGPWTH”, “failed”.
